Measurements taken from patent US20240141007A1.

Target: human FcRn (human) (UniProt P55899)
Assay: SPR, hFcRn as ligand

Kd: 518 nM
Substance: Ipilimumab (antibody)
